Reference: publication PMC3568127 (2013)

B1: VEGF-A165 (R&D Systems), unlabelled (ligand)
chain: APMAEGGGQNHHEVVKFMDVYQRSYCHPIETLVDIFQEYPDEIEYIFKPSCVPLMRCGGCCNDEGLECVPTEESNITMQIMRIKPHQGQHIGEMSFLQHNKCECRPKKDRARQENPCGPCSERRKHLFVQDPQTCKCSCKNTDSRCKARQLELNERTCRCDKPRR
modifications: Disulfide-linked homodimer. Mature VEGF165 (equals P15692-4 residues 27-191, 165 aa) is built from the 395-aa displayed form by removing exon 6a, with K to N at the splice junction. Limits follow the standard mature VEGF165; the paper does not print them.
B2: His6-tagged VEGF-A165-HBD (heparin binding domain of human vascular endothelial growth factor VEGF-A165) (domain or fragment)
chain: PCGPCSERRKHLFVQDPQTCKCSCKNTDSRCKARQLELNERTCRCDKPRR
B3: VEGF-A165-HBD with the His6-tag removed (domain or fragment)
chain: B2 chain

Columns and labels:
[1] = molecular target: T1, NRP1 (neuropilin 1) expressed from an adenovirus on DU145 cells (UniProt O14786 22-923); assay: competition with bt-VEGF-A165 on DU145 cells
T1 sequence (O14786 22-923): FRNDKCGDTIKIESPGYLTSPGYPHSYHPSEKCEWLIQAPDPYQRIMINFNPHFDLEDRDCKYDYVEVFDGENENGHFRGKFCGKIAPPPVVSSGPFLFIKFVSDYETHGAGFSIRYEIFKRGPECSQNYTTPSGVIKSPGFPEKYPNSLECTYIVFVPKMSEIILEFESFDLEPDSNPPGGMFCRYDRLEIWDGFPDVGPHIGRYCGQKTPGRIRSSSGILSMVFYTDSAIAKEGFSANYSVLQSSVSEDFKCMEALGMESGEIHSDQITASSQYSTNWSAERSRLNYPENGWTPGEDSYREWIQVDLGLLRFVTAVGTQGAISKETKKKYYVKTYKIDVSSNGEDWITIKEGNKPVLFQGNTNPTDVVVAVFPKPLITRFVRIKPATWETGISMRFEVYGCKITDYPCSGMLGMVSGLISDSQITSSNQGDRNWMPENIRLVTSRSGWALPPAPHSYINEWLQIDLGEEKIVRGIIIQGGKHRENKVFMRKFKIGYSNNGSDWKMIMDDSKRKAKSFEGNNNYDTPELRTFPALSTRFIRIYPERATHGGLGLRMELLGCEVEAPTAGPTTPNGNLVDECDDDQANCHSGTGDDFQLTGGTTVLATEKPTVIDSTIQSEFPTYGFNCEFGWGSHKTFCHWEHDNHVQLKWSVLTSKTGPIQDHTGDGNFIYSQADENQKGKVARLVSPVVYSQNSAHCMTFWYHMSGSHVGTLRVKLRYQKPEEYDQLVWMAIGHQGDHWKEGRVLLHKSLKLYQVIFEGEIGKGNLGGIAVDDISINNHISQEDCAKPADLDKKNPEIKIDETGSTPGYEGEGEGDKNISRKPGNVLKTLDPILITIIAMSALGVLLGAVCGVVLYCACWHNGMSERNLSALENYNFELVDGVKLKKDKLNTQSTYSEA

[2] = molecular target: T1, NRP1 (neuropilin 1) expressed from an …; assay: competition with bt-VEGF-A165 on DU145 cells, +BSA

Row | Binder | IC50 [1] | IC50 [2]
1 | B1 | 0.8 nM | 
2 | B2 | 161 nM | 152 nM
3 | B3 | 107 nM | 229 nM
